According to publication PMC3528738:

Target: MPERp (HIV-1 (HXBc2 isolate))
Experiment: cross-linking; peptides (10 µg) in solution incubated with 20 µM BS3 for 1 h at 37°C, TCA precipitation, Tricine SDS-PAGE; detection by Western blot with MAb2F5 or by NBD fluorescence in the gel

MPERp (peptide), sequence (P03375 656-683): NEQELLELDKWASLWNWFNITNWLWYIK

For MPERp (peptide), the stoichiometry N was 2.
